The test addresses PPP1CA(2-330), His6-MBP tag cleaved by TEV protease (human, UniProt P62136 2-330). Kind of test: SEC.

Chain of PPP1CA(2-330), His6-MBP tag cleaved by TEV protease (P62136 2-330): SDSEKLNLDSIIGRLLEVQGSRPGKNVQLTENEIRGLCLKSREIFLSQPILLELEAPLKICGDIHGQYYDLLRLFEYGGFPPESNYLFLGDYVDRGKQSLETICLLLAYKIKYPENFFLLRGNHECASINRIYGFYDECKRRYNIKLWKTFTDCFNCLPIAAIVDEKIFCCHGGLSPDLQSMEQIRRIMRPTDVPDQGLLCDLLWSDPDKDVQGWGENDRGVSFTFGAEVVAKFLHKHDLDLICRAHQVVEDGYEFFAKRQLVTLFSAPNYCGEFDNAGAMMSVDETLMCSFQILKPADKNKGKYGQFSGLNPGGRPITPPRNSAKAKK

B1: SHOC2, native full-length (natural protein, human, UniProt Q9UQ13 1-582, looked up)
chain: MSSSLGKEKDSKEKDPKVPSAKEREKEAKASGGFGKESKEKEPKTKGKDAKDGKKDSSAAQPGVAFSVDNTIKRPNPAPGTRKKSSNAEVIKELNKCREENSMRLDLSKRSIHILPSSIKELTQLTELYLYSNKLQSLPAEVGCLVNLMTLALSENSLTSLPDSLDNLKKLRMLDLRHNKLREIPSVVYRLDSLTTLYLRFNRITTVEKDIKNLSKLSMLSIRENKIKQLPAEIGELCNLITLDVAHNQLEHLPKEIGNCTQITNLDLQHNELLDLPDTIGNLSSLSRLGLRYNRLSAIPRSLAKCSALEELNLENNNISTLPESLLSSLVKLNSLTLARNCFQLYPVGGPSQFSTIYSLNMEHNRINKIPFGIFSRAKVLSKLNMKDNQLTSLPLDFGTWTSMVELNLATNQLTKIPEDVSGLVSLEVLILSNNLLKKLPHGLGNLRKLRELDLEENKLESLPNEIAYLKDLQKLVLTNNQLTTLPRGIGHLTNLTHLGLGENLLTHLPEEIGTLENLEELYLNDNPNLHSLPFELALCSKLSIMSIENCPLSHLPPQIVAGGPSFIIQFLKMQGPYRAMV
Take B1: the “stoichiometry N” value was 1.

A word on the stoichiometry N: it is a count of units in the complex or per binding partner.

Source of the values: article PMC8881745 (Protein expression and purification, 2022).
